Measurements as given in the supplement of paper PMC5998384.

Tests used:
[1] = system: HeLa Kyoto; experiment: melting temperature (median over replicates), in situ; higher = more thermally stable
[2] = system: HeLa Kyoto; experiment: solubility in G1/S (NP-40 vs SDS abundance) (log2 ratio); higher = more soluble; conditions: cell cycle stage: G1/S
[3] = system: HeLa Kyoto; experiment: thermal stability score vs G1/S (z-score of summed log2 fold changes over temperatures); higher = more thermally stable than in G1/S
[4] = system: HeLa Kyoto; experiment: solubility change mitosis vs G1/S (difference of NP-40 vs SDS log2 ratios) (log2 ratio difference); higher = more soluble in mitosis
[5] = cell cycle stage: early G1 (4.5 h after nocodazole release)
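For melting temperature (median over replicates), in situ in this document: HeLa Kyoto cells synchronized by double thymidine or nocodazole block, proteins quantified by TMT10plex mass spectrometry, three independent biological replicates.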
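For solubility change mitosis vs G1/S (difference of NP-40 vs SDS log2 ratios) in this document: synchronized HeLa Kyoto cells (double thymidine block for G1/S, nocodazole release for mitosis), protein amounts in NP-40 versus SDS lysates quantified by mass spectrometry, three biological replicates.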
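For solubility in G1/S (NP-40 vs SDS abundance) in this document: HeLa Kyoto cells arrested at G1/S by double thymidine block, proteins quantified by TMT10plex mass spectrometry in mild NP-40 versus SDS extracts, three biological replicates.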
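For thermal stability score vs G1/S (z-score of summed log2 fold changes over temperatures) in this document: synchronized HeLa Kyoto cells, proteins quantified by TMT10plex mass spectrometry, three biological replicates, mitosis taken 0.5 h after nocodazole release, G1/S directly after double thymidine block.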

Row | Substance | melting temperature ([1]; cell cycle stage: G1/S) [°C] | melting temperature ([1]; cell cycle stage: mitosis) [°C] | solubility in G1/S (log2) [2] | thermal stability score [3, 5] | thermal stability score ([3]; cell cycle stage: mitosis) | solubility change mitosis (log2) [4]
1 | MSINLTVDIYIYLLSNARSVCGKQRSKQLYFLFSPKHYWRISHISLQRGFHTNIIRCKWTKSEAHSCSKHCYSPSNHGLHIGILKLSTSAPKGLTKVNICMSRIKSTLNSVSKAVFGNQNEMISRLAQFKPSSQILRKVSDSGWLKQKNIKQAIKSLKKYSDKSAEKSPFPEEKSHIIDKEEDIGKRSLFHYTSSITTKFGDSFYFLSNHINSYFKRKEKMSQQKENEHFRDKSELEDKKVEEGKLRSPDPGILAYKPGSESVHTVDKPTSPSAIPDVLQVSTKQSIANFLSRPTEGVQALVGGYIGGLVPKLKYDSKSQSEEQEEPAKTDQAVSKDRNAEEKKRLSLQREKIIARVSIDNRTRALVQALRRTTDPKLCITRVEELTFHLLEFPEGKGVAVKERIIPYLLRLRQIKDETLQAAVREILALIGYVDPVKGRGIRILSIDGGGTRGVVALQTLRKLVELTQKPVHQLFDYICGVSTGAILAFMLGLFHMPLDECEELYRKLGSDVFSQNVIVGTVKMSWSHAFYDSQTWENILKDRMGSALMIETARNPTCPKVAAVSTIVNRGITPKAFVFRNYGHFPGINSHYLGGCQYKMWQAIRASSAAPGYFAEYALGNDLHQDGGLLLNNPSALAMHECKCLWPDVPLECIVSLGTGRYESDVRNTVTYTSLKTKLSNVINSATDTEEVHIMLDGLLPPDTYFRFNPVMCENIPLDESRNEKLDQLQLEGLKYIERNEQKMKKVAKILSQEKTTLQKINDWIKLKTDMYEGLPFFSKL [PNPLA8] | 53.6 | 54 | 0.117 | -0.78 | -0.701 | -0.0941
2 | MASDEGKLFVGGLSFDTNEQSLEQVFSKYGQISEVVVVKDRETQRSRGFGFVTFENIDDAKDAMMAMNGKSVDGRQIRVDQAGKSSDNRSRGYRGGSAGGRGFFRGGRGRGRGFSRGGGDRGYGGNRFESRSGGYGGSRDYYSSRSQSGGYSDRSSGGSYRDSYDSYATHNE [CIRBP] | 52.8 | 53 | -0.000215 | -0.492 | -2.78 | 0.112
3 | MEPAVSEPMRDQVARTHLTEDTPKVNADIEKVNQNQAKRCTVIGGSGFLGQHMVEQLLARGYAVNVFDIQQGFDNPQVRFFLGDLCSRQDLYPALKGVNTVFHCASPPPSSNNKELFYRVNYIGTKNVIETCKEAGVQKLILTSSASVIFEGVDIKNGTEDLPYAMKPIDYYTETKILQERAVLGANDPEKNFLTTAIRPHGIFGPRDPQLVPILIEAARNGKMKFVIGNGKNLVDFTFVENVVHGHILAAEQLSRDSTLGGKAFHITNDEPIPFWTFLSRILTGLNYEAPKYHIPYWVAYYLALLLSLLVMVISPVIQLQPTFTPMRVALAGTFHYYSCERAKKAMGYQPLVTMDDAMERTVQSFRHLRRVK [NSDHL] | 53.1 | 53 | -0.0523 | 1.89 | 1.38 | -0.127
4 | MGDMTNSDFYSKNQRNESSHGGEFGCTMEELRSLMELRGTEAVVKIKETYGDTEAICRRLKTSPVEGLPGTAPDLEKRKQIFGQNFIPPKKPKTFLQLVWEALQDVTLIILEIAAIISLGLSFYHPPGEGNEGCATAQGGAEDEGEAEAGWIEGAAILLSVICVVLVTAFNDWSKEKQFRGLQSRIEQEQKFTVVRAGQVVQIPVAEIVVGDIAQVKYGDLLPADGLFIQGNDLKIDESSLTGESDQVRKSVDKDPMLLSGTHVMEGSGRMLVTAVGVNSQTGIIFTLLGAGGEEEEKKDKKGVKKGDGLQLPAADGAAASNAADSANASLVNGKMQDGNVDASQSKAKQQDGAAAMEMQPLKSAEGGDADDRKKASMHKKEKSVLQGKLTKLAVQIGKAGLVMSAITVIILVLYFTVDTFVVNKKPWLPECTPVYVQYFVKFFIIGVTVLVVAVPEGLPLAVTISLAYSVKKMMKDNNLVRHLDACETMGNATAICSDKTGTLTTNRMTVVQAYVGDVHYKEIPDPSSINTKTMELLINAIAINSAYTTKILPPEKEGALPRQVGNKTECGLLGFVLDLKQDYEPVRSQMPEEKLYKVYTFNSVRKSMSTVIKLPDESFRMYSKGASEIVLKKCCKILNGAGEPRVFRPRDRDEMVKKVIEPMACDGLRTICVAYRDFPSSPEPDWDNENDILNELTCICVVGIEDPVRPEVPEAIRKCQRAGITVRMVTGDNINTARAIAIKCGIIHPGEDFLCLEGKEFNRRIRNEKGEIEQERIDKIWPKLRVLARSSPTDKHTLVKGIIDSTHTEQRQVVAVTGDGTNDGPALKKADVGFAMGIAGTDVAKEASDIILTDDNFSSIVKAVMWGRNVYDSISKFLQFQLTVNVVAVIVAFTGACITQDSPLKAVQMLWVNLIMDTFASLALATEPPTETLLLRKPYGRNKPLISRTMMKNILGHAVYQLALIFTLLFVGEKMFQIDSGRNAPLHSPPSEHYTIIFNTFVMMQLFNEINARKIHGERNVFDGIFRNPIFCTIVLGTFAIQIVIVQFGGKPFSCSPLQLDQWMWCIFIGLGELVWGQVIATIPTSRLKFLKEAGRLTQKEEIPEEELNEDVEEIDHAERELRRGQILWFRGLNRIQTQIRVVKAFRSSLYEGLEKPESRTSIHNFMAHPEFRIEDSQPHIPLIDDTDLEEDAALKQNSSPPSSLNKNNSAIDSGINLTTDTSKSATSSSPGSPIHSLETSL [ATP2B2] | 54.2 | 53.6 | -0.538 | -1.72 | -2.96 | -0.123
5 | MPLSRWLRSVGVFLLPAPYWAPRERWLGSLRRPSLVHGYPVLAWHSARCWCQAWTEEPRALCSSLRMNGDQNSDVYAQEKQDFVQHFSQIVRVLTEDEMGHPEIGDAIARLKEVLEYNAIGGKYNRGLTVVVAFRELVEPRKQDADSLQRAWTVGWCVELLQAFFLVADDIMDSSLTRRGQICWYQKPGVGLDAINDANLLEACIYRLLKLYCREQPYYLNLIELFLQSSYQTEIGQTLDLLTAPQGNVDLVRFTEKRYKSIVKYKTAFYSFYLPIAAAMYMAGIDGEKEHANAKKILLEMGEFFQIQDDYLDLFGDPSVTGKIGTDIQDNKCSWLVVQCLQRATPEQYQILKENYGQKEAEKVARVKALYEELDLPAVFLQYEEDSYSHIMALIEQYAAPLPPAVFLGLARKIYKRRK [FDPS] | 50.8 | 51 | 0.151 | 2.88 | 3.37 | -0.0646
6 | SEPHS1 | 58.8 | 58.8 | 0.503 | -1.3 | -1.24 | -0.0554
7 | MGDREQLLQRARLAEQAERYDDMASAMKAVTELNEPLSNEDRNLLSVAYKNVVGARRSSWRVISSIEQKTMADGNEKKLEKVKAYREKIEKELETVCNDVLSLLDKFLIKNCNDFQYESKVFYLKMKGDYYRYLAEVASGEKKNSVVEASEAAYKEAFEISKEQMQPTHPIRLGLALNFSVFYYEIQNAPEQACLLAKQAFDDAIAELDTLNEDSYKDSTLIMQLLRDNLTLWTSDQQDEEAGEGN [YWHAH] | 52.5 | 52.6 | 0.565 | -1.65 | -1.58 | 0.0669
